Measured values published in patent publication US20040018530.
Like-named read-outs stand apart in the source and are kept apart here.

Experiments:
[1] = tested on: IgE (immunoglobulin E, monoclonal, kappa light chain) (Homo sapiens); conditions: CE-UV binding assay up to 1.1 uM IgE; round 1 pool 67% bound; PBS, 1 mM MgCl2, pH 8.0, 25 C
[2] = tested on: IgE (immunoglobulin E, monoclonal, kappa light chain) (Homo sapiens); conditions: affinity capillary electrophoresis with LIF; PBS, 1 mM MgCl2, 40 mM NaCl, pH 8.0, 25 C
[3] = tested on: IgE (immunoglobulin E, monoclonal, kappa light chain) (Homo sapiens); conditions: affinity capillary electrophoresis with LIF; PBS, 1 mM MgCl2, pH 8.0, 25 C; literature value 10 nM; cited from earlier work
[4] = tested on: IgE (immunoglobulin E, monoclonal, kappa light chain) (Homo sapiens); conditions: CE-UV binding assay; rounds 1, 2, 3 gave 62, 96, ~100% bound; PBS, 1 mM MgCl2, pH 8.0, 25 C
[5] = tested on: IgE (immunoglobulin E, monoclonal, kappa light chain) (Homo sapiens); conditions: affinity capillary electrophoresis with LIF; PBS, 1 mM MgCl2, 35 mM NaCl, pH 8.0, 25 C
[6] = tested on: IgE (immunoglobulin E, monoclonal, kappa light chain) (Homo sapiens); conditions: CE-UV binding assay up to 2.5 uM IgE; round 1 pool 33% bound; PBS, 1 mM MgCl2, pH 8.0, 25 C

Work on “AGCAGCACAGAGGTCAGATGNNNNNNNNNNNNNNNNNNNNNNNNNNNNNNNNNNNNNNNNCCTATGCGTGCTACCGTGAA [CE-SELEX experiment 2 round 2 enriched pool]” yielded a binding [1] of 100 % bound.

Work on “AGCAGCACAGAGGTCAGATGGATGGGGGGGTCTAACGTGCGATCTGCCGACTTTATCCTGCCTATGCGTGCTACCGTGAA [Clone 2.27]” yielded a Kd [2] of 52 nM.

For “CTACCTACGATCTGACTAGCGGGGCACGTTTATCCGTCCCTCCTAGTGGCGTGCCCCGCTTACTCTCATGTAGTTCC [conventional SELEX IgE aptamer]”, the Kd [3] is listed as 4 nM.

“AGCAGCACAGAGGTCAGATGNNNNNNNNNNNNNNNNNNNNNNNNNNNNNNNNNNNNNNNNCCTATGCGTGCTACCGTGAA [CE-SELEX experiment 3 round 4 enriched pool]” gave a binding [4] of 100 % bound.

“AGCAGCACAGAGGTCAGATGGTAATTTTCGCTGCGATTAGGCTTGTGACAAAATTACTATCCTATGCGTGCTACCGTGAA [Clone 1.8]” showed a Kd [5] of 293 nM.

In the case of “AGCAGCACAGAGGTCAGATGNNNNNNNNNNNNNNNNNNNNNNNNNNNNNNNNNNNNNNNNCCTATGCGTGCTACCGTGAA [CE-SELEX experiment 1 round 2 enriched pool]”, the binding [6] is reported as 100 % bound.
